Measured values as given in patent US9574016B2, “Complex of bi-specific antibody and digoxigenin conjugated to a therapeutic or diagnostic agent” (Hoffmann-La Roche Inc., priority 2009, dated 2017).
Where “and” joins values, the source holds several entries; their conditions need not be identical. Equal values may be shown once. Non-standard residues stand in square brackets, D forms with d. Residues, ends and D or L forms follow the SMILES beside them. No end group written: not given here. PEG3 = NCCOCCOCCOCCC(=O)O

Assays:
[1] = Excitation and emission spectra; type: physicochemical
Text: To evaluate whether digoxygenation of Cy5 alters its fluorescence features, we compared the excitation and emission spectra of Cy5 and compared it with the spectra of the newly generated Dig-Cy5 and with Dig-Cy5 within a complex with bispecific antibodies. […] We conclude that Dig-Cy5 and —complexes can be applied for antibody-mediated targeting and in vivo imaging.

[2] = test system: CD22 positive Raji and Ramos cells; assay: FACS analysis with <CD22>-<DIG> and DIG-Cy5; type: cell-based; conditions: DIG-Cy5 66.4 nM
Protocol: For these analyses we used CD22 positive Raji and Ramos cells and the bispecific <CD22>-<DIG> antibody. 3×10^5 cells per well of a 96-well-plate were incubated with 5 ng/ml of the <CD22>-<DIG> antibody in FACS buffer (PBS containing 5% FCS). After washing the cells were incubated with DIG-Cy5 in a final concentration of 66.4 nM. After another washing step cells were analysed with the FACS canto II (BD Biosciences).

[3] = test system: IGF1R expressing tumors (H322M cells); assay: NIRF tumor imaging with Dig-Cy5 complexes, H322M xenograft; type: in vivo, mice; conditions: 30 min, i.v.
Protocol: To analyze if the specific antigen binding functionality of the antibody-complexes can be utilized to specifically deliver imaging reagents to tumor cells, we performed Near Infrared Fluorescence Imaging Studies (NIRF) in vivo. […] These xenografts were either expressing the antigen Her2 (KPL4 cells) or the antigen IGF1R (H322M cells). Subsequently NIRF imaging was performed by using the Maestro system from CRI. Animals were placed in a measuring chamber and the fluorescence was measured over a defined spectral wavelength array, depending on the dye. Spectral information of each pixel of the obtained image was analyzed by a special software which allows to separate different pre-defined spectra, e.g. autoflourescence and the signal of the dye. Theses separated specific signals were quantified by the Maestro software in order to compare different samples.

[4] = test system: H322M (low surface Her2) and KPL4 (high surface Her2) cells; assay: CytoTox-Glo assay of DIG-peptide-<Her2>-<Dig> complexes; type: cell-based, human; conditions: 48 hours
Text: To analyze whether the <Her2>-<Dig>-Dig-Peptide complexes, and <IGF1R>-<Dig>-Dig-Peptide complexes mediate specific targeting of their payload towards antigen expressing cells, we made use of the fact that the FALLv1 and Fam5b peptides are cytotoxic. […] To measure the number of dead cells, the CytoTox-Glo assay (Promega Madison, Wis.) was used. To analyze the specificity of the targeting, two cell lines were used: H322M which have low levels of surface Her2 and KPL4 which have high levels of surface Her2.
For these assays, H322M cells were seeded at a density of 15.000 cells per well in 96 well plates. The cells were incubated for 24 hours at 37° C., 5% CO2 and 85% humidity in RPMI with 10% FCS, Na+Pyrovate, L-Glutamine and NEAA mix. KPL4 cells were seeded at a density of 7.000 cells per well in 96 well plates. The cells were incubated for 24 hours at 37° C., 5% CO2 and 85% humidity in RPMI with 10% FCS, and L-Glutamine. […] The cells were incubated for further 48 hours. After this period, the cells were treated with the CytoTox-Glo-assay reagent according to the manufacturers instructions. In brief, this assay detects dead cells via the presence of a protease in the medium that cleaves a flurogenic peptide in the reagent. The luminescence of this assay therefore represents dead cells. The 96 well plates were then analyzed in a InfiniteF200 luminescence reader (Tecan Austria, Gröding).

[5] = target: siRNA-DIG (Eg5-siRNA-DIG); assay: SPR (Biacore) binding to mono-digoxygenated siRNA; conditions: 25° C.
Protocol: (§2) For that, binding properties of the recombinant <Dig> derivatives were analyzed by surface plasmon resonance (SPR) technology using a Biacore T100 or Biacore 3000 instrument (GE Healthcare Bio-Sciences AB, Uppsala). […] It allows a continuous real-time monitoring of ligand/analyte bindings and thus the determination of association rate constants (ka), dissociation rate constants (kd), and equilibrium constants (KD) in various assay settings. SPR-technology is based on the measurement of the refractive index close to the surface of a gold coated biosensor chip. Changes in the refractive index indicate mass changes on the surface caused by the interaction of immobilized ligand with analyte injected in solution. If molecules bind to immobilized ligand on the surface the mass increases, in case of dissociation the mass decreases. To perform the binding studies capturing anti-human IgG antibody was immobilized on the surface of a CM5 biosensor chip using amine-coupling chemistry. […]
(§3) Anti-mouse IgG antibody was immobilized on the surface of a CM5 biosensor chip in the same fashion as described above. […] The samples to be analyzed were diluted in HBS-P (10 mM HEPES, pH 7.4, 150 mM NaCl, 0.005% Surfactant P20) and injected at a flow rate of 5 μl/min. […] Signals were detected at a rate of one signal per second.
(§4) The samples to be analyzed were diluted in HBS-P and injected at a flow rate of 5 μl/min. […]

[6] = target: siRNA-(2x)DIG (Eg5-siRNA-(2×)DIG); assay: SPR (Biacore) binding to bi-digoxygenated siRNA; conditions: 25° C.
Protocol: as §2, §3, §4

DIG-Myoglobin = assay: SPR study, binding to DIG-myoglobin
Protocol: (§1) For that, binding properties of the recombinant <Dig> derivatives were analyzed by surface plasmon resonance (SPR) technology using a Biacore T100 or Biacore 3000 instrument (GE Healthcare Bio-Sciences AB, Uppsala). This system is well established for the study of molecule interactions. It allows a continuous real-time monitoring of ligand/analyte bindings and thus the determination of association rate constants (ka), dissociation rate constants (kd), and equilibrium constants (KD) in various assay settings. SPR-technology is based on the measurement of the refractive index close to the surface of a gold coated biosensor chip. Changes in the refractive index indicate mass changes on the surface caused by the interaction of immobilized ligand with analyte injected in solution. If molecules bind to immobilized ligand on the surface the mass increases, in case of dissociation the mass decreases. To perform the binding studies capturing anti-human IgG antibody was immobilized on the surface of a CM5 biosensor chip using amine-coupling chemistry. Flow cells were activated with a 1:1 mixture of 0.1 M N-hydroxysuccinimide and 0.1 M 3-(N,N-dimethylamino)propyl-N-ethylcarbodiimide at a flow rate of 5 μl/min. […] A reference control flow cell was treated in the same way but with vehicle buffers only instead of the capturing antibody. Surfaces were blocked with an injection of 1 M ethanolamine/HCl pH 8.5. To compare the binding of the humanized protein variants with that of the murine <Dig> IgG from the original hybridoma 19-11, capturing anti-mouse IgG antibody was immobilized on the surface of a CM5 biosensor chip in the same fashion as described above for the anti-human IgG antibody. To evaluate the functionality of the recombinant <Dig> derivatives, binding of the recombinant hu<Dig> modules, incl. […]

DIG-siRNA2349 = assay: SPR study, binding to DIG-siRNA2349; conditions: analyte DIG-siRNA2349; listed as <DIG>M-19-11
Protocol: as §1, with “antibody.” for “antibody. Surfaces were blocked with an injection of 1 M ethanolamine/HCl pH 8.5. To compare the binding of the humanized protein variants with that of the murine <Dig> IgG from the original hybridoma 19-11, capturing anti-mouse IgG antibody was immobilized on the surface of a CM5 biosensor chip in the same fashion as described above for the anti-human IgG antibody. To evaluate the functionality of the recombinant <Dig> derivatives, binding of the recombinant hu<Dig> modules, incl.”

[7] = analyte DIG-Myoglobin, listed as <DIG>M-19-11

Molecule: CCN1c2ccc(S(=O)(=O)O)cc2C(C)(C)C1/C=C/C=C/C=C1\N(CCCCCC(=O)NCCNC(=O)CO[C@H]2CC[C@@]3(C)[C@H](CC[C@@H]4[C@@H]3C[C@@H](O)[C@]3(C)[C@@H](C5=CC(=O)OC5)CC[C@]43O)C2)c2ccc(S(=O)(=O)O)cc2C1(C)C (stereo partly drawn) [Dig-Cy5]
- Emission wavelength (max.) [1]: 670 nm
- binding to Raji or Ramos cells (FACS) [2]: hardly any binding
- tumor visualization by NIRF [3]: no tumor specific fluorescence

Molecule: CC[C@H](C)[C@H](NC(=O)[C@H](CCCCN)NC(=O)[C@H](CCC(=O)O)NC(=O)[C@H](CCCCN)NC(=O)[C@H](CO)NC(=O)[C@H](CCCCN)NC(=O)[C@H](CCCNC(=N)N)NC(=O)[C@H](Cc1ccccc1)NC(=O)[C@H](Cc1ccccc1)NC(=O)[C@H](CC(=O)O)NC(=O)CNC(=O)[C@H](CC(C)C)NC(=O)[C@H](CC(C)C)NC(=O)[C@H](C)NC(=O)[C@H](Cc1ccccc1)NC(=O)[C@@H](N)CSC1CC(=O)N(CCNC(=O)CO[C@H]2CC[C@@]3(C)[C@H](CC[C@@H]4[C@@H]3C[C@@H](O)[C@]3(C)[C@@H](C5=CC(=O)OC5)CC[C@]43O)C2)C1=O)C(=O)NCC(=O)N[C@@H](CCCCN)C(=O)N[C@@H](CCC(=O)O)C(=O)N[C@@H](Cc1ccccc1)C(=O)N[C@@H](CCCCN)C(=O)N[C@@H](CCCNC(=N)N)C(=O)N[C@H](C(=O)N[C@H](C(=O)N[C@@H](CCC(N)=O)C(=O)N[C@@H](CCCNC(=N)N)C(=O)N[C@H](C(=O)N[C@@H](CCCCN)C(=O)N[C@@H](CC(=O)O)C(=O)N[C@@H](Cc1ccccc1)C(=O)N[C@@H](CC(C)C)C(=O)N[C@@H](CCCNC(=N)N)C(=O)N[C@@H](CC(N)=O)C(=O)N[C@@H](CC(C)C)C(=O)N[C@H](C(=O)N1CCC[C@H]1C(=O)N[C@@H](CCCNC(=N)N)C(=O)N[C@H](C(=O)N[C@@H](CCC(=O)O)C(=O)N[C@@H](CO)C(N)=O)[C@@H](C)O)C(C)C)[C@@H](C)CC)C(C)C)[C@@H](C)CC (stereo partly drawn) [Dig-FALLv1]
- cytotoxicity when delivered by the <Her2>-<Dig> bispecific antibody, H322M compared to KPL4 [4]: more toxic to cells expressing higher levels of surface antigen

Molecule: CC[C@H](C)[C@H](NC(=O)[C@H](CCCCN)NC(=O)[C@H](CCC(=O)O)NC(=O)[C@H](CCCCN)NC(=O)[C@H](CO)NC(=O)[C@H](CCCCN)NC(=O)[C@H](CCCNC(=N)N)NC(=O)[C@H](Cc1ccccc1)NC(=O)[C@H](Cc1ccccc1)NC(=O)[C@H](CC(=O)O)NC(=O)CNC(=O)[C@H](CC(C)C)NC(=O)[C@H](CC(C)C)NC(=O)[C@H](C)NC(=O)[C@@H](N)Cc1ccccc1)C(=O)NCC(=O)N[C@@H](CCCCN)C(=O)N[C@@H](CCC(=O)O)C(=O)N[C@@H](Cc1ccccc1)C(=O)N[C@@H](CCCCN)C(=O)N[C@@H](CCCNC(=N)N)C(=O)N[C@H](C(=O)N[C@H](C(=O)N[C@@H](CCC(N)=O)C(=O)N[C@@H](CCCNC(=N)N)C(=O)N[C@H](C(=O)N[C@@H](CCCCN)C(=O)N[C@@H](CC(=O)O)C(=O)N[C@@H](Cc1ccccc1)C(=O)N[C@@H](CC(C)C)C(=O)N[C@@H](CCCNC(=N)N)C(=O)N[C@@H](CC(N)=O)C(=O)N[C@@H](CC(C)C)C(=O)N[C@H](C(=O)N1CCC[C@H]1C(=O)N[C@@H](CCCNC(=N)N)C(=O)N[C@H](C(=O)N[C@@H](CCC(=O)O)C(=O)N[C@@H](CO)C(N)=O)[C@@H](C)O)C(C)C)[C@@H](C)CC)C(C)C)[C@@H](C)CC [FALLv1]
- cytotoxicity of the <Her2>-<Dig> complex towards antigen expressing target cells compared to non-complexed peptide [4]: higher

Molecule: CC[C@H](C)[C@H](NC(=O)[C@H](CCCNC(=N)N)NC(=O)[C@H](Cc1c[nH]cn1)NC(=O)[C@@H](NC(=O)[C@H](CCCCN)NC(=O)[C@H](CCCCN)NC(=O)[C@H](Cc1ccccc1)NC(=O)[C@H](CC(C)C)NC(=O)[C@@H](NC(=O)[C@H](CCCCN)NC(=O)[C@H](CC(C)C)NC(=O)CNC(=O)[C@H](C)NC(=O)CNC(=O)[C@H](CC(C)C)NC(=O)[C@H](CCC(N)=O)NC(=O)[C@H](CCC(N)=O)NC(=O)[C@H](Cc1ccc(O)cc1)NC(=O)[C@H](CCCNC(=N)N)NC(=O)[C@H](Cc1c[nH]cn1)NC(=O)[C@@H](N)CCC(N)=O)C(C)C)[C@@H](C)O)C(=O)N[C@@H](CC(C)C)C(=O)N[C@@H](CCCNC(=N)N)C(=O)N[C@@H](CCCNC(=N)N)C(=O)N[C@@H](CC(C)C)C(=O)N[C@@H](Cc1ccccc1)C(=O)N[C@@H](CC(N)=O)C(=O)N[C@@H](CC(C)C)C(=O)N[C@@H](C)C(=O)N[C@@H](CCCCN)C(=O)O [Fam5b] (H-QHRYQQLGAGLKVLFKKTHRILRRLFNLAK-OH)
- cytotoxicity of the <Her2>-<Dig> complex towards antigen expressing target cells compared to non-complexed peptide [4]: higher

Molecule: Cy5 [reference compound]
- Emission wavelength (max.) [1]: 670 nm

Molecule: DIG-Fam5b: digoxigenin conjugate of Fam5b with TEG-spacer and amino-terminal cystein (C[PEG3]QHRYQQLGAGLKVLFKKTHRILRRLFNLAK; also: digoxigenin conjugate, attachment site not given here)
- cytotoxicity when delivered by the <Her2>-<Dig> bispecific antibody, H322M compared to KPL4 [4]: correlates with the levels of surface antigen

B1: murine DIG-IgG 19-11: murine <Dig> IgG1 kappa from mouse hybridoma clone 19-11; VL Seq. ID. NO. 1, VH Seq. ID. NO. 2 (antibody, listed as Mus musculus, V domains shown)
VH: MNFVLSLIFLALILKGVQCEVQLVESGGGLVKPGGSLKLSCAVSGFTFSDYAMSWIRQTPENRLEWVASINIGATYAYYPDSVKGRFTISRDNAKNTLFLQMSSLGSEDTAMYYCARPGSPYEYDKAYYSMAYWGPGTSVTVSS
VL: MSSAQFLGLLLLCFQGTRCDVQMTQSTSSLSASLGDRVTISCRASQDIKNYLNWYQQKPGGTVKLLIYYSSTLLSGVPSRFSGRGSGTDFSLTITNLEREDIATYFCQQSITLPPTFGGGTKLEIK
notes: murine <Dig> IgG1 kappa from mouse hybridoma clone 19-11; ID; NO
- Kd [5]: 0.269 nM
- Kd [6]: 0.017 nM
- affinity to DIG-myoglobin relative to <DIG>-hu2 and disulfide-stabilized <DIG> scFv (DIG-Myoglobin): about a hundred fold better
- ka (DIG-Myoglobin; [7]): 1.75e+06 M⁻¹ s⁻¹ and 2.28e+06 M⁻¹ s⁻¹
- kd (DIG-Myoglobin; [7]): 0.000676 s⁻¹ and 0.000675 s⁻¹
- ka (DIG-siRNA2349): 3.27e+06 M⁻¹ s⁻¹ and 2.26e+06 M⁻¹ s⁻¹
- kd (DIG-siRNA2349): 0.000903 s⁻¹ and 0.000838 s⁻¹
